What is called Kd is the equilibrium constant for the complex coming apart.

The target of this assay is T1, Recombinant NT antigen (N-terminal pro-brain natriuretic peptide, NT-proBNP) (human, UniProt P16860 27-102).
T1 construct: domain: N-terminal pro-brain natriuretic peptide (NT-proBNP); also called recombinant NT protein; N-terminal pro-B-type natriuretic peptide
T1 sequence (looked up): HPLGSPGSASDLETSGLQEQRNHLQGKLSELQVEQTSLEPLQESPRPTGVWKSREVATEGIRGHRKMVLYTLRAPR
Nature of the assay: indirect ELISA, KD calculated from half-max OD at 4 coating concentrations. The method, then:
Recombinant NT antigen was diluted with coating solution to 1 μg/ml a microplate overnight at 4° C.; which was washed twice with washing solution and patted dry on the next day; with addition of blocking solution (20% BSA+80% PBS) at 120 μL per well at 37° C. for 1 h and patted dry; added the diluted NT monoclonal antibody, 100 μL/well at 37° C. for 30 min (partial supernatant for 1 h); washed 5 times with washing solution and patted dry; added rabbit anti-goat IgG-HRP […] per well at 37° C. for 30 min; washed 5 times with washing solution and patted dry; added color developing solution A (50 μL/well), added color developing solution B (50 μL/well) for 10 min; added stop solution, 50 μL/well; followed by reading the OD value at 450 nm (reference 630 nm) on the microplate reader.
Data from the enzyme immunoassay indirect method were analyzed in the same way as the activity identification, with four gradients of 3 μg/ml, 1.5 μg/ml, 0.75 μg/ml and 0.375 μg/ml for coating; the antibody was diluted from 1000 ng/ml by 2 times to 0.977 ng/ml for loading sample. OD values corresponding to different antibody concentrations at different coating concentrations were obtained. Under the same coating concentration, data were plotted logarithmically with the antibody concentration as the abscissa and the OD value as the ordinate.

Positions count from the first letter of the chain named.

B1: Mutation 1-52 (antibody, V domains shown)
VH: QVRLQESGPSQVKPAQTLSLTCAISGFSVTTYYLDWVRHTPGKPPEWLAQMTKDGNAVHQPTVRSRLSITRDTSKSQVFLKLTGVTTEDTAVYYCVRGVIDWGPGLLVTVSS
VL: QAVLTQPSSVSRSLGQTVSITCSGSSDNVGFGDYLNWFQLIPGSAPKTLIFGAYSRLRGVPDRFSGSRSGNTATLTINSLQAEDEADYYCGSGNSRGGYVFGSGTRLTVLS
Turning to B1, the dissociation constant Kd was 2.71 nM.

B2: Mutation 1-6 (antibody, V domains shown)
VH: B1 VH with L34I, Q60N, V99I
VL: QAVLTQPSSVSRSLGQTVSITCSGSSDNVGFGDYINWFQLIPGSAPKTLIFGASSRIRGVPDRFSGSRSGNTATLTINSLQAEDEADYYCGSPNSRNYVFGSGTRLTVLS
Regarding B2, the Kd is 1.17 nM.

B3: Mutation 1-30 (antibody, V domains shown)
VH: B1 VH with V29L, L34I, Q60N, V99I
VL: B2 VL with S54T
As to B3, the Kd is 2.66 nM.

B4: Mutation 1-18 (antibody, V domains shown)
VH: B1 VH with V29I, L34I, Q60N, V99I
VL: B2 VL with S54T
For B4, the dissociation constant (Kd) is 1.73 nM.

B5: WT 1-4 (antibody)
heavy: QVRLQESGPSQVKPAQTLSLTCAISGPSVTTYYVDWVRHTPGKPPEWLAQMTKDANAVHQPTLRSRLSITRDTSKSQVFLKLTGVTTEDTAVYYCVKGVIDFGPGLLVTVSSASTTPPKVYPLTSCCGDTSSSIVTLGCLVSSYMPEPVTVTWNSGALTSGVHTFPAILQSSGLYSLSSVVTVPASTSGAQTFICNVAHPASSTKVDKRVEPGCPDPCKHCRCPPPELPGGPSVFIFPPKPKDTLTISGTPEVTCVVVDVGQDDPEVQFSWFVDNVEVRTARTKPREEQFNSTFRVVSALPIQHQDWTGGKEFKCKVHNEGLPAPIVRTISRTKGQAREPQVYVLAPPQEELSKSTLSVTCLVTGFYPDYIAVEWQKNGQPESEDKYGTTTSQLDADGSYFLYSRLRVDKNSWQEGDTYACVVMHEALHNHYTQKSISKPPGK
light: QAVLTQPSSVSRSLGQTVSITCSGSSDQVGPGDYVNWFQLIPGSAPKTLIFAATSRIRGVPDRFSGSRSGNTATLTINSLQAEDEADYYCGSGNSRGGYVWGSGTRLTVLSQPKSAPSVTLFPPSKEELDTNKATVVCLISDFYPGSVNVVWKADGSTINQNVKTTQASKQSNSKYAASSYLTLTGSEWKSKSSYTCEVTHEGSTVTKTVKPSECS
On to B5, for which the Kd was 3.02 nM.

B6: WT 1-6 (antibody, V domains shown)
VH: B1 VH with F27P, V29I, L34V, G55A, V63I, R97K, V99L
V domain: B1 VL with N28Q, F31P, G52A, Y54S, G93A, F101W
As to B6, the Kd is 6.14 nM.

B7: WT 1-7 (antibody, V domains shown)
VH: B1 VH with F27P, G55A, R97K
V domain: B1 VL with F31P, L35I, G52A, F101W
Turning to B7, the Kd was 5.05 nM.

B8: Mutation 1-5 (antibody)
heavy: B5 heavy with P27F, V29L, A55G, Q60N, L63V, K97R
light: QAVLTQPSSVSRSLGQTVSITCSGSSDNVGFGDYINWFQLIPGSAPKTLIFGAYSRVRGVPDRFSGSRSGNTATLTINSLQAEDEADYYCGSGNSRNYVFGSGTRLTVLSQPKSAPSVTLFPPSKEELDTNKATVVCLISDFYPGSVNVVWKADGSTINQNVKTTQASKQSNSKYAASSYLTLTGSEWKSKSSYTCEVTHEGSTVTKTVKPSECS
For the molecule B8, the dissociation constant (Kd) was 6.1 nM.

B9: Mutation 1-29 (antibody)
heavy: B5 heavy with P27F, V29I, A55G, Q60N, L63V, K97R
light: B8 light with Y54S
As to B9, the Kd is 1.49 nM.

B10: Mutation 1-11 (antibody)
heavy: B5 heavy with P27F, V29I, A55G, L63I, K97R
light: B5 light with P31F, A52G, T54S, I57V, G93P, W101F
Regarding B10, the Kd is 1.52 nM.

B11: Mutation 1-17 (antibody)
heavy: B5 heavy with P27F, A55G, Q60N, L63V, K97R
light: B8 light with Y54T
As to B11, the dissociation constant Kd was 3.39 nM.

B12: Mutation 1-9 (antibody)
heavy: B5 heavy with P27F, V29I, V34I, A55G, K97R, V99L
light: B5 light with P31F, V35I, A52G, T54S, G93A, W101F
As for B12, the equilibrium dissociation constant (Kd) is 1.56 nM.

B13: Mutation 1-23 (antibody)
heavy: B5 heavy with P27F, V29L, A55G, L63I, K97R
light: B5 light with P31F, A52G, T54Y, I57V, G93P, W101F
With B13, the Kd is 0.81 nM.

B14: Mutation 1-19 (antibody)
heavy: B5 heavy with P27F, V29I, V34L, A55G, L63V, K97R, V99I
light: B8 light with I35L, Y54T, V57L
Regarding B14, the Kd is 1.51 nM.

These data come from US20220025008A1 (FAPON BIOTECH, published 2022).
